One block for each substance: values may come before it.
How the values were obtained:
[1] = target: high-affinity receptor for somatostatin on primary tumor cells of human colon adenocarcinoma (human); test: 125I-somatostatin receptor-ligand assay on cells, Scatchard (LIGAND); culture PTC-1
[2] = target: receptor with a moderately high affinity for somatostatin on primary tumor cells of human colon adenocarcinoma (human); test: as above
[3] = target: high-affinity receptor for somatostatin on primary tumor cells of human colon adenocarcinoma (human); test: 125I-somatostatin receptor-ligand assay on cells, Scatchard (LIGAND); culture PTC-2
[4] = target: receptor with a moderately high affinity for somatostatin on primary tumor cells of human colon adenocarcinoma (human); test: as above
[5] = target: high-affinity receptor for somatostatin on primary tumor cells of human colon adenocarcinoma (human); test: 125I-somatostatin receptor-ligand assay on cells, Scatchard (LIGAND); culture PTC-3
[6] = target: receptor with a moderately high affinity for somatostatin on primary tumor cells of human colon adenocarcinoma (human); test: as above
[7] = target: high-affinity receptor for somatostatin on primary tumor cells of human colon adenocarcinoma (human); test: 125I-somatostatin receptor-ligand assay on cells, Scatchard (LIGAND); culture PTC-4
[8] = target: receptor with a moderately high affinity for somatostatin on primary tumor cells of human colon adenocarcinoma (human); test: as above
[9] = target: high-affinity receptor for somatostatin on primary tumor cells of human colon adenocarcinoma (human); test: 125I-somatostatin receptor-ligand assay on cells, Scatchard (LIGAND); culture PTC-5
[10] = target: receptor with a moderately high affinity for somatostatin on primary tumor cells of human colon adenocarcinoma (human); test: as above
[11] = target: high-affinity receptor for somatostatin on primary tumor cells of human colon adenocarcinoma (human); test: 125I-somatostatin receptor-ligand assay on cells, Scatchard (LIGAND); culture PTC-6
[12] = target: receptor with a moderately high affinity for somatostatin on primary tumor cells of human colon adenocarcinoma (human); test: as above
[13] = target: high-affinity receptor for somatostatin on primary tumor cells of human colon adenocarcinoma (human); test: 125I-somatostatin receptor-ligand assay on cells, Scatchard (LIGAND); culture PTC-7
[14] = target: receptor with a moderately high affinity for somatostatin on primary tumor cells of human colon adenocarcinoma (human); test: as above
[15] = target: high-affinity receptor for somatostatin on primary tumor cells of human colon adenocarcinoma (human); test: 125I-somatostatin receptor-ligand assay on cells, Scatchard (LIGAND); culture PTC-8
[16] = target: receptor with a moderately high affinity for somatostatin on primary tumor cells of human colon adenocarcinoma (human); test: as above
[17] = target: high-affinity receptor for bombesin on primary tumor cells of human colon adenocarcinoma (human); test: 125I-bombesin receptor-ligand assay on cells, Scatchard (LIGAND); culture PTC-1
[18] = target: high-affinity receptor for bombesin on primary tumor cells of human colon adenocarcinoma (human); test: 125I-bombesin receptor-ligand assay on cells, Scatchard (LIGAND); culture PTC-2
[19] = target: high-affinity receptor for bombesin on primary tumor cells of human colon adenocarcinoma (human); test: 125I-bombesin receptor-ligand assay on cells, Scatchard (LIGAND); culture PTC-3
[20] = target: high-affinity receptor for bombesin on primary tumor cells of human colon adenocarcinoma (human); test: 125I-bombesin receptor-ligand assay on cells, Scatchard (LIGAND); culture PTC-4
[21] = target: high-affinity receptor for bombesin on primary tumor cells of human colon adenocarcinoma (human); test: 125I-bombesin receptor-ligand assay on cells, Scatchard (LIGAND); culture PTC-5
[22] = target: high-affinity receptor for bombesin on primary tumor cells of human colon adenocarcinoma (human); test: 125I-bombesin receptor-ligand assay on cells, Scatchard (LIGAND); culture PTC-6
[23] = target: high-affinity receptor for bombesin on primary tumor cells of human colon adenocarcinoma (human); test: 125I-bombesin receptor-ligand assay on cells, Scatchard (LIGAND); culture PTC-7
[24] = target: high-affinity receptor for bombesin on primary tumor cells of human colon adenocarcinoma (human); test: 125I-bombesin receptor-ligand assay on cells, Scatchard (LIGAND); culture PTC-8
[25] = target: receptor with a moderately high affinity for Substance P on primary tumor cells of human colon adenocarcinoma (human); test: 125I-Substance P receptor-ligand assay on cells, Scatchard (LIGAND); culture PTC-1
[26] = target: receptor with a moderately high affinity for Substance P on primary tumor cells of human colon adenocarcinoma (human); test: 125I-Substance P receptor-ligand assay on cells, Scatchard (LIGAND); culture PTC-2
[27] = target: receptor with a moderately high affinity for Substance P on primary tumor cells of human colon adenocarcinoma (human); test: 125I-Substance P receptor-ligand assay on cells, Scatchard (LIGAND); culture PTC-3
[28] = target: receptor with a moderately high affinity for Substance P on primary tumor cells of human colon adenocarcinoma (human); test: 125I-Substance P receptor-ligand assay on cells, Scatchard (LIGAND); culture PTC-4
[29] = target: receptor with a moderately high affinity for Substance P on primary tumor cells of human colon adenocarcinoma (human); test: 125I-Substance P receptor-ligand assay on cells, Scatchard (LIGAND); culture PTC-5
[30] = target: receptor with a moderately high affinity for Substance P on primary tumor cells of human colon adenocarcinoma (human); test: 125I-Substance P receptor-ligand assay on cells, Scatchard (LIGAND); culture PTC-6
[31] = target: receptor with a moderately high affinity for Substance P on primary tumor cells of human colon adenocarcinoma (human); test: 125I-Substance P receptor-ligand assay on cells, Scatchard (LIGAND); culture PTC-7
[32] = target: receptor with a moderately high affinity for Substance P on primary tumor cells of human colon adenocarcinoma (human); test: 125I-Substance P receptor-ligand assay on cells, Scatchard (LIGAND); culture PTC-8
[33] = target: high-affinity receptor for VIP on primary tumor cells of human colon adenocarcinoma (human); test: 125I-VIP receptor-ligand assay on cells, Scatchard (LIGAND); culture PTC-1
[34] = target: receptor with a moderately high affinity for VIP on primary tumor cells of human colon adenocarcinoma (human); test: as above
[35] = target: high-affinity receptor for VIP on primary tumor cells of human colon adenocarcinoma (human); test: 125I-VIP receptor-ligand assay on cells, Scatchard (LIGAND); culture PTC-2
[36] = target: receptor with a moderately high affinity for VIP on primary tumor cells of human colon adenocarcinoma (human); test: as above
[37] = target: high-affinity receptor for VIP on primary tumor cells of human colon adenocarcinoma (human); test: 125I-VIP receptor-ligand assay on cells, Scatchard (LIGAND); culture PTC-3
[38] = target: receptor with a moderately high affinity for VIP on primary tumor cells of human colon adenocarcinoma (human); test: as above
[39] = target: high-affinity receptor for VIP on primary tumor cells of human colon adenocarcinoma (human); test: 125I-VIP receptor-ligand assay on cells, Scatchard (LIGAND); culture PTC-4
[40] = target: receptor with a moderately high affinity for VIP on primary tumor cells of human colon adenocarcinoma (human); test: as above
[41] = target: high-affinity receptor for VIP on primary tumor cells of human colon adenocarcinoma (human); test: 125I-VIP receptor-ligand assay on cells, Scatchard (LIGAND); culture PTC-5
[42] = target: receptor with a moderately high affinity for VIP on primary tumor cells of human colon adenocarcinoma (human); test: as above
[43] = target: high-affinity receptor for VIP on primary tumor cells of human colon adenocarcinoma (human); test: 125I-VIP receptor-ligand assay on cells, Scatchard (LIGAND); culture PTC-6
[44] = target: receptor with a moderately high affinity for VIP on primary tumor cells of human colon adenocarcinoma (human); test: as above
[45] = target: high-affinity receptor for VIP on primary tumor cells of human colon adenocarcinoma (human); test: 125I-VIP receptor-ligand assay on cells, Scatchard (LIGAND); culture PTC-7
[46] = target: receptor with a moderately high affinity for VIP on primary tumor cells of human colon adenocarcinoma (human); test: as above
[47] = target: high-affinity receptor for VIP on primary tumor cells of human colon adenocarcinoma (human); test: 125I-VIP receptor-ligand assay on cells, Scatchard (LIGAND); culture PTC-8
[48] = target: receptor with a moderately high affinity for VIP on primary tumor cells of human colon adenocarcinoma (human); test: as above

Kd [1]: 0.323 nM | R(M/L) receptor number [1]: 6.01e-11 M/L | Kd [2]: 93.7 nM | R(M/L) receptor number [2]: 4.41e-09 M/L | Kd [3]: 0.17 nM | R(M/L) receptor number [3]: 8.99e-11 M/L | Kd [4]: 63.5 nM | R(M/L) receptor number [4]: 2.24e-09 M/L | Kd [5]: 1.15 nM | R(M/L) receptor number [5]: 1.06e-10 M/L | Kd [6]: 134 nM | R(M/L) receptor number [6]: 5.09e-09 M/L | Kd [7]: 0.0865 nM | R(M/L) receptor number [7]: 4.66e-11 M/L | Kd [8]: 56.4 nM | R(M/L) receptor number [8]: 2.75e-09 M/L | Kd [9]: 0.378 nM | R(M/L) receptor number [9]: 5.82e-11 M/L | Kd [10]: 15.4 nM | R(M/L) receptor number [10]: 1.24e-09 M/L | Kd [11]: 0.545 nM | R(M/L) receptor number [11]: 6.85e-11 M/L | R(M/L) receptor number [12]: 1.16e-09 M/L | Kd [13]: 1.11 nM | R(M/L) receptor number [13]: 9.81e-11 M/L | Kd [14]: 128 nM | R(M/L) receptor number [14]: 3.89e-09 M/L | Kd [15]: 0.964 nM | R(M/L) receptor number [15]: 1.74e-10 M/L | Kd [16]: 99.2 nM | R(M/L) receptor number [16]: 6.59e-09 M/L
Substance: somatostatin (from UniProt P61278 103-116) (peptide)

Kd [17]: 0.439 nM | R(M/L) receptor number [17]: 2.24e-10 M/L | Kd [18]: 0.593 nM | R(M/L) receptor number [18]: 3.22e-10 M/L | Kd [19]: 0.569 nM | R(M/L) receptor number [19]: 2.97e-10 M/L | Kd [20]: 0.568 nM | R(M/L) receptor number [20]: 2.89e-10 M/L | Kd [21]: 0.462 nM | R(M/L) receptor number [21]: 3.35e-10 M/L | Kd [22]: 0.485 nM | R(M/L) receptor number [22]: 2.24e-10 M/L | Kd [23]: 0.67 nM | R(M/L) receptor number [23]: 2.55e-10 M/L | Kd [24]: 0.883 nM | R(M/L) receptor number [24]: 2.85e-10 M/L
Substance: bombesin (peptide)

Kd [25]: 154 nM | R(M/L) receptor number [25]: 1.85e-08 M/L | Kd [26]: 172 nM | R(M/L) receptor number [26]: 1.71e-08 M/L | Kd [27]: 134 nM | R(M/L) receptor number [27]: 1.49e-08 M/L | Kd [28]: 154 nM | R(M/L) receptor number [28]: 1.66e-08 M/L | Kd [29]: 21 nM | R(M/L) receptor number [29]: 6.2e-09 M/L | Kd [30]: 234 nM | R(M/L) receptor number [30]: 2.95e-08 M/L | Kd [31]: 26.2 nM | R(M/L) receptor number [31]: 7.48e-09 M/L | Kd [32]: 186 nM | R(M/L) receptor number [32]: 1.32e-08 M/L
Substance: Substance P (from UniProt P20366 58-68) (peptide)

Kd [33]: 1.04 nM | R(M/L) receptor number [33]: 4.83e-11 M/L | Kd [34]: 633 nM | R(M/L) receptor number [34]: 1.78e-08 M/L | Kd [35]: 1.45 nM | R(M/L) receptor number [35]: 6.23e-11 M/L | Kd [36]: 423 nM | R(M/L) receptor number [36]: 1.03e-08 M/L | Kd [37]: 6.35 nM | R(M/L) receptor number [37]: 2.45e-10 M/L | Kd [38]: 1510 nM | R(M/L) receptor number [38]: 2.93e-08 M/L | Kd [39]: 11 nM | R(M/L) receptor number [39]: 2.75e-10 M/L | Kd [40]: 945 nM | R(M/L) receptor number [40]: 5.03e-08 M/L | Kd [41]: 19.5 nM | R(M/L) receptor number [41]: 5.29e-10 M/L | Kd [42]: 3510 nM | R(M/L) receptor number [42]: 8.72e-08 M/L | Kd [43]: 4.41 nM | R(M/L) receptor number [43]: 1.05e-10 M/L | Kd [44]: 1880 nM | R(M/L) receptor number [44]: 3.21e-08 M/L | Kd [45]: 1.49 nM | R(M/L) receptor number [45]: 6.12e-11 M/L | Kd [46]: 555 nM | R(M/L) receptor number [46]: 9.37e-09 M/L | Kd [47]: 1.78 nM | R(M/L) receptor number [47]: 1.5e-10 M/L | Kd [48]: 8420 nM | R(M/L) receptor number [48]: 8.49e-09 M/L
Substance: vasoactive intestinal peptide (VIP) (from UniProt P01282 125-152)

— patent EP0835662A2
